Measurements published in PMC9482650, “Quantitative fragmentomics allow affinity mapping of interactomes” (Nature Communications, 2022).
Positions count from the first letter of the chain named.

Tests used:
Assay in all cases: holdup assay
Set-up in all cases: key: below the threshold = too weak to quantify, mostly under pKd 3.1 to 4
Conditions in all cases: plain residues with an end cap or a label only (N-terminal biotin on a linker: ado-ado)
APBA1_2, Q02410 = biological target: T1, APBA1_2, Q02410
T1 sequence (Q02410 742-832, limits assumed, looked up): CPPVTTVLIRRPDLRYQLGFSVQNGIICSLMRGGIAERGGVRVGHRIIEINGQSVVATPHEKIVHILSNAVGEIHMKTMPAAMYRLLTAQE

APBA2_2, Q99767 = biological target: T2, APBA2_2, Q99767
T2 sequence (Q99767 654-744, limits assumed, looked up): T1 sequence (Q02410 742-832, limits assumed, looked up) with R10K, R15K, P59A, H65Q, I66A, A70S, Y84F, A89G

ARHGAP21, Q5T5U3 = biological target: T3, ARHGAP21, Q5T5U3
T3 sequence (Q5T5U3 45-169, limits assumed, looked up): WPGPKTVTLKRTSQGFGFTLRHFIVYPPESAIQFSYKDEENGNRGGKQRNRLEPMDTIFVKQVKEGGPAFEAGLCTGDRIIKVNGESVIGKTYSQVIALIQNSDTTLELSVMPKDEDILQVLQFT

DLG1_1, Q12959 = biological target: DLG1_1, Q12959
DLG4_2, P78352 = biological target: DLG4_2, P78352
FRMPD4, Q14CM0 = biological target: FRMPD4, Q14CM0
GRID2IP_2, A4D2P6 = biological target: GRID2IP_2, A4D2P6
GRIP2_3, Q9C0E4 = biological target: GRIP2_3, Q9C0E4
GRIP2_4, Q9C0E4 = biological target: GRIP2_4, Q9C0E4
GRIP2_5, Q9C0E4 = biological target: GRIP2_5, Q9C0E4
GRIP2_6, Q9C0E4 = biological target: GRIP2_6, Q9C0E4
IL16_1, Q14005 = biological target: IL16_1, Q14005
IL16_3, Q14005 = biological target: IL16_3, Q14005
Inadl_10, Q8NI35 = biological target: Inadl_10, Q8NI35
LNX1_1, Q8TBB1 = biological target: LNX1_1, Q8TBB1
LNX1_3, Q8TBB1 = biological target: LNX1_3, Q8TBB1
LNX2_3, Q8N448 = biological target: T4, LNX2_3, Q8N448
T4 sequence (Q8N448 463-564, limits assumed, looked up): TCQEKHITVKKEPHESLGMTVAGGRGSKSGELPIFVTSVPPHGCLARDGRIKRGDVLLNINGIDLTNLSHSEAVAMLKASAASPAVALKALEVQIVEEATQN

MAGI2_4, Q86UL8 = biological target: MAGI2_4, Q86UL8
MAGI2_5, Q86UL8 = biological target: MAGI2_5, Q86UL8
MPP2, Q14168 = biological target: T5, MPP2, Q14168
T5 sequence (Q14168 180-250, limits assumed, looked up): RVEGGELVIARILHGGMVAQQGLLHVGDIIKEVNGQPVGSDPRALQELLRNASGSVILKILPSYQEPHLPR

MPP7, Q5T2T1 = biological target: T6, MPP7, Q5T2T1
T6 sequence (Q5T2T1 134-230, limits assumed, looked up): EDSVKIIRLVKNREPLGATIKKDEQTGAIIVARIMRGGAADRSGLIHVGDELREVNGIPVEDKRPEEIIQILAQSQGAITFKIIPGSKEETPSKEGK

NHERF3_1, Q5T2W1 = biological target: T7, NHERF3_1, Q5T2W1
T7 sequence (Q5T2W1 4-100, limits assumed, looked up): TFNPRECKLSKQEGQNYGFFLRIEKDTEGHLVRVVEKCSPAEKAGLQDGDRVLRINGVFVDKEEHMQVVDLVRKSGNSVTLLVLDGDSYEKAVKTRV

PCLO, Q9Y6V0 = biological target: T8, PCLO, Q9Y6V0
T8 sequence (Q9Y6V0 4491-4600, limits assumed, looked up): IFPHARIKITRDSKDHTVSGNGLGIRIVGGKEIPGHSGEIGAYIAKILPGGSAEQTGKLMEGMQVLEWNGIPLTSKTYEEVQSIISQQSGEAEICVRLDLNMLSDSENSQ

PDZRN3_1, Q9UPQ7 = biological target: T9, PDZRN3_1, Q9UPQ7
T9 sequence (Q9UPQ7 244-349, limits assumed, looked up): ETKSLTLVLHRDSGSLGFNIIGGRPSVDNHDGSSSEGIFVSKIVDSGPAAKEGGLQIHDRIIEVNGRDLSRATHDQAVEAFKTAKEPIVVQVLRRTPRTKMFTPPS

PTPN3, P26045 = biological target: PTPN3, P26045
SCRIB_3, Q14160 = biological target: SCRIB_3, Q14160
SNTG1, Q9NSN8 = biological target: T10, SNTG1, Q9NSN8
T10 sequence (Q9NSN8 52-150, limits assumed, looked up): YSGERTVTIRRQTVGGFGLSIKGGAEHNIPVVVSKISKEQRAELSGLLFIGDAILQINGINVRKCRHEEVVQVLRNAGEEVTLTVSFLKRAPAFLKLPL

TJP1_3, Q07157 = biological target: TJP1_3, Q07157
Sequence of TJP1_3, Q07157 (Q07157 416-512): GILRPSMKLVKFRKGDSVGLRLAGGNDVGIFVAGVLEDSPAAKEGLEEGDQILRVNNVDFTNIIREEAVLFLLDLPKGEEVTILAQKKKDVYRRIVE

Sequence of LNX1_3, Q8TBB1 (Q8TBB1 500-596): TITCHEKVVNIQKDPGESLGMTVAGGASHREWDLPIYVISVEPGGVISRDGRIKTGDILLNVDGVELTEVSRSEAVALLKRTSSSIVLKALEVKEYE
Sequence of GRIP2_4, Q9C0E4 (Q9C0E4 446-548): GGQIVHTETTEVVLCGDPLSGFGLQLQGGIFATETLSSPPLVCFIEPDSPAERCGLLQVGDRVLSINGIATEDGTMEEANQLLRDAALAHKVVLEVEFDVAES
Sequence of DLG4_2, P78352 (P78352 155-259): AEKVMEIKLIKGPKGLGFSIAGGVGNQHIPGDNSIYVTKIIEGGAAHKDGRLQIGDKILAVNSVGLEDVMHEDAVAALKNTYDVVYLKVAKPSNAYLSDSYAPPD
Sequence of MAGI2_5, Q86UL8 (Q86UL8 915-1017): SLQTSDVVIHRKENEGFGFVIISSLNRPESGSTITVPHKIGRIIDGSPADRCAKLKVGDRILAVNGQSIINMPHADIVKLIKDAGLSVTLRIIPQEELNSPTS
Sequence of GRIP2_5, Q9C0E4 (Q9C0E4 544-642): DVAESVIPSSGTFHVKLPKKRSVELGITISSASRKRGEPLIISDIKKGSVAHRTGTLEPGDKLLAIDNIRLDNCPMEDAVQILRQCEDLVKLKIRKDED
Sequence of GRID2IP_2, A4D2P6 (A4D2P6 272-370): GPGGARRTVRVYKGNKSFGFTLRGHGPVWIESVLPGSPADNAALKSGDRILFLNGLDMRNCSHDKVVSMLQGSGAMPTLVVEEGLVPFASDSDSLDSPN
Sequence of PTPN3, P26045 (P26045 505-587): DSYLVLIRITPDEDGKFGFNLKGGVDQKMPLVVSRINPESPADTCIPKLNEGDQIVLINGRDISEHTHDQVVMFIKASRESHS
Sequence of IL16_1, Q14005 (Q14005 210-306): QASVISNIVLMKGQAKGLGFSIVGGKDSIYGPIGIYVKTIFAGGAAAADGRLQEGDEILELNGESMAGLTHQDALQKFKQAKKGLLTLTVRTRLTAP
Sequence of GRIP2_3, Q9C0E4 (Q9C0E4 238-339): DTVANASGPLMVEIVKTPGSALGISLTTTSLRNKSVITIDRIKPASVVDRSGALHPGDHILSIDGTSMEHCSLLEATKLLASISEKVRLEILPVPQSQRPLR
Sequence of GRIP2_6, Q9C0E4 (Q9C0E4 648-740): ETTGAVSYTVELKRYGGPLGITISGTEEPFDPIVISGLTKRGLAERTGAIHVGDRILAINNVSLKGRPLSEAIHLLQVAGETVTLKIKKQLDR
Sequence of Inadl_10, Q8NI35 (Q8NI35 1673-1763): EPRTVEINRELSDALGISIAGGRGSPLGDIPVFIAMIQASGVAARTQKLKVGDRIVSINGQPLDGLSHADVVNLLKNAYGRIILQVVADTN
Sequence of FRMPD4, Q14CM0 (Q14CM0 67-160): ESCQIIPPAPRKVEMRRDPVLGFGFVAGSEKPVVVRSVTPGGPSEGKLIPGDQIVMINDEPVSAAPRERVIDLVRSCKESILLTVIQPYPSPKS
Sequence of LNX1_1, Q8TBB1 (Q8TBB1 261-371): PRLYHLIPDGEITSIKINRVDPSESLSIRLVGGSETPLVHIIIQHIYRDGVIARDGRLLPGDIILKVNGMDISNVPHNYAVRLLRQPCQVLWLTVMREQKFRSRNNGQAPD
Sequence of SCRIB_3, Q14160 (Q14160 999-1103): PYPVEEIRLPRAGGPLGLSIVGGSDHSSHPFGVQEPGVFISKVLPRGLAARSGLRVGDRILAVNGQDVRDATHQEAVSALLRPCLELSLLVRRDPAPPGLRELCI
Sequence of MAGI2_4, Q86UL8 (Q86UL8 772-865): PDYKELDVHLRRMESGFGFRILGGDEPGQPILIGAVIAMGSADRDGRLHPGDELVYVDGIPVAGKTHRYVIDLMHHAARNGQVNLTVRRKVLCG
Sequence of IL16_3, Q14005 (Q14005 1107-1207): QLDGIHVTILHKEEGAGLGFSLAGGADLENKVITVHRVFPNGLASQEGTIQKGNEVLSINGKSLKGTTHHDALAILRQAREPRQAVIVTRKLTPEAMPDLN

Binder	pKd (APBA1_2, Q02410)	pKd (APBA2_2, Q99767)	pKd (ARHGAP21, Q5T5U3)	pKd (DLG1_1, Q12959)	pKd (DLG4_2, P78352)	pKd (FRMPD4, Q14CM0)	pKd (GRID2IP_2, A4D2P6)	pKd (GRIP2_3, Q9C0E4)	pKd (GRIP2_4, Q9C0E4)	pKd (GRIP2_5, Q9C0E4)	pKd (GRIP2_6, Q9C0E4)	pKd (IL16_1, Q14005)	pKd (IL16_3, Q14005)	pKd (Inadl_10, Q8NI35)	pKd (LNX1_1, Q8TBB1)	pKd (LNX1_3, Q8TBB1)	pKd (LNX2_3, Q8N448)	pKd (MAGI2_4, Q86UL8)	pKd (MAGI2_5, Q86UL8)	pKd (MPP2, Q14168)	further results
PYSESDDDWC [CACNA1A, O00555]	below the threshold	below the threshold	4.17	below the threshold	below the threshold	4.01	below the threshold	below the threshold	below the threshold	below the threshold	below the threshold	below the threshold	below the threshold	below the threshold	below the threshold	below the threshold	below the threshold	below the threshold	below the threshold	below the threshold	pKd (MPP7, Q5T2T1): below the threshold; pKd (NHERF3_1, Q5T2W1): 3.95; pKd (PCLO, Q9Y6V0): below the threshold; pKd (PDZRN3_1, Q9UPQ7): below the threshold; pKd (PTPN3, P26045): 4.15; pKd (SCRIB_3, Q14160): 3.83; pKd (SNTG1, Q9NSN8): 3.66; pKd (TJP1_3, Q07157): below the threshold
AQRARSPSDV [GPR12, P47775]	4.14	below the threshold	below the threshold	below the threshold	3.92	below the threshold	below the threshold	below the threshold	below the threshold	below the threshold	below the threshold	below the threshold	below the threshold	below the threshold	3.79	below the threshold	below the threshold	below the threshold	below the threshold	below the threshold	pKd (MPP7, Q5T2T1): 3.59; pKd (NHERF3_1, Q5T2W1): below the threshold; pKd (PCLO, Q9Y6V0): below the threshold; pKd (PDZRN3_1, Q9UPQ7): below the threshold; pKd (PTPN3, P26045): 3.98; pKd (SCRIB_3, Q14160): below the threshold; pKd (SNTG1, Q9NSN8): below the threshold; pKd (TJP1_3, Q07157): below the threshold
KKMLQRRTLL [OR8G1, Q15617]	3.52	below the threshold	below the threshold	below the threshold	3.81	3.53	5.09	below the threshold	below the threshold	below the threshold	below the threshold	below the threshold	below the threshold	below the threshold	below the threshold	below the threshold	below the threshold	below the threshold	4.59	below the threshold	pKd (MPP7, Q5T2T1): below the threshold; pKd (NHERF3_1, Q5T2W1): 4.94; pKd (PCLO, Q9Y6V0): below the threshold; pKd (PDZRN3_1, Q9UPQ7): 3.6; pKd (PTPN3, P26045): 3.8; pKd (SCRIB_3, Q14160): 4.07; pKd (SNTG1, Q9NSN8): below the threshold; pKd (TJP1_3, Q07157): below the threshold
QSGLYESEEL [MYOT, Q9UBF9]	below the threshold	below the threshold	below the threshold	below the threshold	3.53	below the threshold	below the threshold	below the threshold	below the threshold	below the threshold	4.67	below the threshold	below the threshold	below the threshold	below the threshold	below the threshold	below the threshold	below the threshold	4.02	below the threshold	pKd (MPP7, Q5T2T1): below the threshold; pKd (NHERF3_1, Q5T2W1): 4.44; pKd (PCLO, Q9Y6V0): below the threshold; pKd (PDZRN3_1, Q9UPQ7): below the threshold; pKd (PTPN3, P26045): 4.21; pKd (SCRIB_3, Q14160): below the threshold; pKd (SNTG1, Q9NSN8): below the threshold; pKd (TJP1_3, Q07157): below the threshold
